Target: T1, recombinant Tie2-Fc fusion protein (R&D systems) (UniProt Q02763 23-745)
T1 construct: not shown: Fc part
Assay: Biacore 8K, Ang2 amine-coupled, Tie2-Fc as analyte, single-cycle kinetics

T1 sequence (Q02763 23-745 limits assumed): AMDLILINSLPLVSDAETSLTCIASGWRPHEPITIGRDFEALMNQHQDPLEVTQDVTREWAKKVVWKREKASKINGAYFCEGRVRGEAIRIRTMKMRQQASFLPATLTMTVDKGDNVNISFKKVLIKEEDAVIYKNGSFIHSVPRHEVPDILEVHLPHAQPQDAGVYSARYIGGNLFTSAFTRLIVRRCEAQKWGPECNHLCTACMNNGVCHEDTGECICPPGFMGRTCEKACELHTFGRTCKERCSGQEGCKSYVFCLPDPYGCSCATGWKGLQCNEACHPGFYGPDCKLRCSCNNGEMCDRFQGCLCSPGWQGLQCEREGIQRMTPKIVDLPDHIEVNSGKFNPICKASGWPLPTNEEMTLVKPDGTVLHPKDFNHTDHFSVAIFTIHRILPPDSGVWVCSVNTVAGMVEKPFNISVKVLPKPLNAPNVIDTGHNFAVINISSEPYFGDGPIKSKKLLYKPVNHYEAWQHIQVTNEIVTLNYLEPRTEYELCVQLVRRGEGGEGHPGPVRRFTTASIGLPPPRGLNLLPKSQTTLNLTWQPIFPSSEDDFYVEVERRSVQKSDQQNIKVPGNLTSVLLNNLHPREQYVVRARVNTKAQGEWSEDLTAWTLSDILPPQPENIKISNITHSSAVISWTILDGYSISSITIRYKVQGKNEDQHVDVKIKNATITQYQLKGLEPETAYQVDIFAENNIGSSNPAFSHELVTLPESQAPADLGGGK

B1: human recombinant Ang2 protein (ligand, UniProt O15123 19-496, looked up)
chain: YNNFRKSMDSIGKKQYQVQHGSCSYTFLLPEMDNCRSSSSPYVSNAVQRDAPLEYDDSVQRLQVLENIMENNTQWLMKLENYIQDNMKKEMVEIQQNAVQNQTAVMIEIGTNLLNQTAEQTRKLTDVEAQVLNQTTRLELQLLEHSLSTNKLEKQILDQTSEINKLQDKNSFLEKKVLAMEDKHIIQLQSIKEEKDQLQVLVSKQNSIIEELEKKIVTATVNNSVLQKQQHDLMETVNNLLTMMSTSNSAKDPTVAKEEQISFRDCAEVFKSGHTTNGIYTLTFPNSTEEIKAYCDMEAGGGGWTIIQRREDGSVDFQRTWKEYKVGFGNPSGEYWLGNEFVSQLTNQQRYVLKIHLKDWEGNEAYSLYEHFYLSSEELNYRIHLKGLTGTAGKISSISQPGNDFSTKDGDNDKCICKCSQMLTGGWWFDACGPSNLNGMYYPQRQNTNKFNGIKWYYWKGSGYSLKATTMMIRPADF
notes: also called rhAng2; angiopoietin-2
Kd: 4.26 nM

From WO2022059800A1 (dated 2022)
